The chains are these.
T1: HK853^cp-BeF3 ^−-RR468 complex (nucleotide site of HK853^cp) (Thermotoga maritima, UniProt Q9WZV7)
T1 construct: gene TM_0853; HK853 cytoplasmic portion (DHp and CA domains, residues 232-489), with RR468; heterotetramer of two HK853cp and two RR468; expressed in E. coli; with Response regulator
T1 sequence (Q9WZV7 232-489): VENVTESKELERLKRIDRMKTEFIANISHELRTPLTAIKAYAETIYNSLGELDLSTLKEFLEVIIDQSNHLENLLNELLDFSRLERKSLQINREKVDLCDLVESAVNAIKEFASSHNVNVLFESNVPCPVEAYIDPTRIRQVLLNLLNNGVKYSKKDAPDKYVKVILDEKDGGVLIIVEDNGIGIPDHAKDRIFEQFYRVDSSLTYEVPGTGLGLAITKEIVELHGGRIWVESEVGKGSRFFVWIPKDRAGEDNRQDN
T1 sequence (Q9WYT9 1-122 partner): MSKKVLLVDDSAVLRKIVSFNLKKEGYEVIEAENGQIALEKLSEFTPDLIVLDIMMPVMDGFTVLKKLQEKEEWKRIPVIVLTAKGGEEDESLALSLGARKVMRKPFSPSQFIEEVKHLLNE

B1: DHp domain of HK853 (HK853^DHp), wild type, residues 250–315 (domain or fragment, Thermotoga maritima, UniProt Q9WZV7 250-315, looked up)
chain: MKTEFIANISHELRTPLTAIKAYAETIYNSLGELDLSTLKEFLEVIIDQSNHLENLLNELLDFSRL
notes: Histidine kinase HK853, Thermotoga maritima, dimerization and histidine-containing phosphotransfer (DHp) domain, residues 250–315; also called wild-type HK853^DHp; not shown: His6, N-terminal, cleaved; MBP, N-terminal, cleaved
B2: H260A mutant of the DHp domain of HK853 (H260A HK853^DHp), residues 250–315 (domain or fragment, Thermotoga maritima, UniProt Q9WZV7 250-315, looked up)
chain: B1 chain with H11A
notes: Histidine kinase HK853, Thermotoga maritima, DHp domain, residues 250–315, with H260A; not shown: His6, N-terminal, cleaved; MBP, N-terminal, cleaved
B3: T264A mutant of the DHp domain of HK853 (T264A HK853^DHp), residues 250–315 (domain or fragment, Thermotoga maritima, UniProt Q9WZV7 250-315, looked up)
chain: B1 chain with T15A
notes: Histidine kinase HK853, Thermotoga maritima, DHp domain, residues 250–315, with T264A; also called T264A HK853 mutant; not shown: His6, N-terminal, cleaved; MBP, N-terminal, cleaved
B4: Cytoplasmic portion of HK853 (HK853^cp), wild type, residues 232–489 (domain or fragment, Thermotoga maritima, UniProt Q9WZV7 232-489, looked up)
chain: T1 sequence (Q9WZV7 232-489)
notes: Histidine kinase HK853, Thermotoga maritima, cytoplasmic portion (DHp and CA domains), residues 232–489; Crystallised with AMPPNP, which was captured as ADP; also called wild-type HK853^cp; source: E. coli BL21(DE3) Gold, purified (ammonium sulfate precipitation, anion-exchange, size-exclusion)
B5: BeF3−-RR468 (BeF3−-conjugated form of the response regulator RR468 from Thermotoga maritima) (natural protein)
chain: T1 sequence (Q9WYT9 1-122 partner)
modifications: BeF3− on D53 (beryllium atom forming a covalent bond with the phosphate-accepting residue D53; phosphoryl analog)
notes: Response regulator RR468, cognate response regulator of HK853, Thermotoga maritima; Generated by adding 5 mM BeCl2 and 50 mM NaF to RR468 (NMR) or 5 mM BeCl2 and 30 mM NaF (crystallisation); Mg2+ in the active site; source: E. coli BL21(DE3) Gold, purified (incubation at 60 °C, anion-exchange, size-exclusion); BeF3− added as BeCl2 and NaF
B6: T264A mutant of the cytoplasmic portion of HK853 (T264A HK853^cp) (domain or fragment, Thermotoga maritima, UniProt Q9WZV7 232-489, looked up)
chain: T1 sequence (Q9WZV7 232-489) with T33A
notes: Histidine kinase HK853, Thermotoga maritima, cytoplasmic portion (residues 232–489 as stated for HK853^cp), with T264A; also called HK853^cp T264A mutant

Data set [1] concerns the target T1, HK853^cp-BeF3 ^−-RR468 complex (nucleotide site of HK853^cp). The experiment in a line: X-ray crystal structure, […] A. Format: binding. The settings on record: pH 5.0; Mg2+; crystallised with 4 mM AMPPNP, hydrolysed to ADP; ATP site of HK853 CA domain.
Data set [2] deals with T2, HK853^cp-BeF3 ^−-RR468 complex (active site of RR468) (Thermotoga maritima, UniProt Q9WYT9).
T2 construct: gene TM_0468
The settings on record: pH 5.0; Mg2+; covalent to D53 of RR468.

Another data set concerns the target T3, RR468 (Thermotoga maritima, UniProt Q9WYT9).
T3 construct: gene TM_0468
The settings on record: pH 7.0; Mg2+; 298 K; covalent Be bond to D53; formed from 5 mM BeCl2 and 50 mM NaF.

Data set [3] deals with T4, HK853^DHp-BeF3 ^−-RR468 complex (Thermotoga maritima, UniProt Q9WYT9).
T4 construct: gene TM_0468
The settings on record: pH 7.0; Mg2+; 298 K; covalent to D53 of RR468; 10-fold excess of HK853 DHp.

Data set [4] deals with B5. Kind of data set: NMR titration; 19F NMR of BeF3−-RR468, HK853^DHp or mutants added at a concentration 10-fold higher than BeF3−-RR468; pH 7.0; 20 mM HEPES, 50 mM KCl, 10 mM MgCl2; 298 K. The settings on record: both partners purified.
Data set [5] deals with the molecule itself. The experiment in a line: crystal structure; HK853^cp (wild type or T264A) with RR468, BeF3− and AMPPNP (captured as ADP), crystallised at pH 5.0 (citric acid, ammonium sulfate).
Data set [6] addresses B4. Described as above. Conditions: both partners purified.
Data set [7] addresses B6. Described as above. The settings on record: both partners purified.

Changes are numbered by the printed parent chain. Names and notes keep the numbering of the source.

On to `Nc1ncnc2c1ncn2[C@@H]1O[C@H](COP(=O)(O)OP(=O)(O)O)[C@@H](O)[C@H]1O` [ADP], for which the “X-ray crystal structure, 2.68 A” value in data set [1] is listed as “The AMPPNP is captured in the hydrolyzed form of ADP”.
Turning to `[F][Be-]([F])[F]` [BeF3 ^−], the “X-ray crystal structure, 2.68 A” value in data set [2] is “reveals a heterotetrameric complex consisting of two HK853^cp and two BeF3 ^−-RR468”. In addition, the “19F NMR” value at RR468 was “we were able to detect three broad fluorine signals from the protein-bound BeF3 ^−”; in data set [3], “indicating the formation of the HK853^DHp-BeF3 ^−-RR468 complex”.
As for B1, the binding result in data set [4] was “binds”.
As to B2, the binding result in data set [4] is listed as “binds”.
With B3, in data set [4], the binding result is reported as “binds”.
For the molecule B4, the binding result in data set [5] is “binds”.
In the case of B5, the binding result in data set [6] and in data set [7] was “binds” each time.
With B6, the binding result in data set [5] was “binds”.

Source of the values: paper PMC5727384, “A pH-gated conformational switch regulates the phosphatase activity of bifunctional HisKA-family histidine kinases” (Nature Communications, 2017).
